Assay results from patent publication US20210261665A1.

Key:
[1] = target: mPD-1 protein (ELISA coat) (mouse) (UniProt Q02242); test: ELISA against mPD-1 ECD-Fc protein (plate coat)
[2] = target: human PD-1 on cells (human) (UniProt Q15116); test: cell based RBA (flow cytometry): blocking of Biotin-hPD-L2 binding to CHOK1-hPD-1 cells
[3] = target: human PD-1 on cells (human) (UniProt Q15116); test: flow cytometry on CHOK1-hPD-1 cells
[4] = target: human PD-1 on cells (human) (UniProt Q15116)
[5] = target: cynomolgus monkey PD-1 on cells (cynomolgus monkey) (UniProt B0LAJ3); test: flow cytometry on CHOK1-cPD-1 cells
[6] = target: human PD-1 on cells (human) (UniProt Q15116); test: cell based RBA (flow cytometry): blocking of Biotin-hPD-L1 binding to CHOK1-hPD-1 cells
[7] = target: hPD-1 protein (ELISA coat) (human) (UniProt Q15116); test: ELISA against hPD-1 ECD-Fc protein (plate coat)
Sequence of hPD-1 protein (ELISA coat) (human) (Q15116 25-167 limits assumed): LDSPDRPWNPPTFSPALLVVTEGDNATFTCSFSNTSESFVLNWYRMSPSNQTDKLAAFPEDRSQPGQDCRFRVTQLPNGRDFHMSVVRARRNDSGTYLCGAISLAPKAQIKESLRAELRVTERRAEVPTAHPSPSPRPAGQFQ

Sequence of human PD-1 on cells (human) (Q15116 25-288): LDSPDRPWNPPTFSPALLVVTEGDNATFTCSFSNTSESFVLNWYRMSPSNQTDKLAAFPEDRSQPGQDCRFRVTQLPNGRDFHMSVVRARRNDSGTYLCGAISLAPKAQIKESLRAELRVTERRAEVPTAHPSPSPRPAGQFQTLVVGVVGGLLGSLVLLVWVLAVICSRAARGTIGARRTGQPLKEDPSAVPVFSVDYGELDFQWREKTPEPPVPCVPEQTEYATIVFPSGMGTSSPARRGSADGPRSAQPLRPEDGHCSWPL
Sequence of mPD-1 protein (ELISA coat) (mouse) (Q02242 25-167 limits assumed): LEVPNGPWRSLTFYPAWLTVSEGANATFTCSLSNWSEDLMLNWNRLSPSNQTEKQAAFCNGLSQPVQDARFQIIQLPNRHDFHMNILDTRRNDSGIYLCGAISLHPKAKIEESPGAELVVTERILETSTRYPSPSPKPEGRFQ
Sequence of cynomolgus monkey PD-1 on cells (cynomolgus monkey) (B0LAJ3 entry or part of it limits assumed): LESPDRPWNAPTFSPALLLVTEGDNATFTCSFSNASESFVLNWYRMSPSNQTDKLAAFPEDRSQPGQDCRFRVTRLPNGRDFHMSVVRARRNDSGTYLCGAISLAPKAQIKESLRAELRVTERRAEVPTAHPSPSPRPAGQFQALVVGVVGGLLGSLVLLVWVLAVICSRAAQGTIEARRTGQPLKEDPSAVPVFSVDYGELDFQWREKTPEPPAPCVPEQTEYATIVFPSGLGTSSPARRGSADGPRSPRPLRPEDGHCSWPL

- Max OD450 [1]: 0.92
- Inhibition rate [2]: -5.5%
- Max MFI [3]: 107
- EC50 printed for the negative control; its RLU curve is flat at about 270000 and falls to about 225000 at the highest concentration, no activation [4]: 12400 ng/mL
- Max MFI [5]: 86
- Inhibition rate [6]: 4.9%
- Max OD450 [7]: 0.67
Substance: control human IgG4 (antibody)
